The source of these data is patent US20210230263A1 (BIOATLA, published 2021).

One assay addresses T1, human IL20 (human, UniProt Q9NYY1 25-176).
T1 sequence (looked up): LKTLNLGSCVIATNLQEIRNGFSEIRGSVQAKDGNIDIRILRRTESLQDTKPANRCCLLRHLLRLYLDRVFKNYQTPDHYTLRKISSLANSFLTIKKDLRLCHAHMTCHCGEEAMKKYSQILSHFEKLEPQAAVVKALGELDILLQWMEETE
The experiment in a line: ELISA on coated antigen (1 ug/ml), anti-hIgG-HRP, OD450.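 Also: specificity check of antibodies applied at 100 ng/ml to wells bearing human or mouse IL-22, related cytokines or an unrelated control antigen.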 For orientation: In an ELISA, binding on a coated surface is turned into a signal by an enzyme label.

In a further assay the target is T2, human IL24 (human, UniProt Q13007 52-206, limits assumed).
T2 sequence (looked up): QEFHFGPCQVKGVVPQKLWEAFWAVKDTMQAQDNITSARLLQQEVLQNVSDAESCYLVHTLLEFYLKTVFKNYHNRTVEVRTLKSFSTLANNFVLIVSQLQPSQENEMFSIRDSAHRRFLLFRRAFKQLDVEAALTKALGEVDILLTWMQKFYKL
The assay is described as above.

The target of assay [1] is T3, mouse IL-22 (mouse, UniProt Q9JJY9 34-179).
T3 construct: also called mIL-22; mIL22
T3 sequence (looked up): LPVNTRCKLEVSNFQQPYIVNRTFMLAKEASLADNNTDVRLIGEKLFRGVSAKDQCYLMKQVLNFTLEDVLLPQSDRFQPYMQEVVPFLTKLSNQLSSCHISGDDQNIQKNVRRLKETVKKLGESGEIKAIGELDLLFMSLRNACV
The assay is described as above.
Protocol: (§1) Plates were coated with 100 μl antigens at a concentration of 1 μg/ml. The plates were exposed to the antibodies at a concentration of 100 ng/ml. The bound antibodies were detected with anti-hIgG-HRP by the ELISA assay.

The target in the next assay is INF-λ1 (Homo sapiens (Human), UniProt Q8IU54 20-200). Described as above.
Sequence of INF-λ1 (Q8IU54 20-200 limits assumed): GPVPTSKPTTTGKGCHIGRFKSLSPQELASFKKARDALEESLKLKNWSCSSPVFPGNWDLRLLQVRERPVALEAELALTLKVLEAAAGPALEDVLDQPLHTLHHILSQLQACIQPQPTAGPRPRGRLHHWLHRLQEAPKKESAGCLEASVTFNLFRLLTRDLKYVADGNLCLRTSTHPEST
Another assay addresses T4, human IL26 (human, UniProt Q9NPH9 22-171, limits assumed).
T4 sequence (looked up): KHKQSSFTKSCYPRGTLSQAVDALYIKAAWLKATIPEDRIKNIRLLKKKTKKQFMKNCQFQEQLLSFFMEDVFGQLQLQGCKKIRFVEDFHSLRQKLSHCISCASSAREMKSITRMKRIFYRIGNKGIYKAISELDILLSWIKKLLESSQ
The assay is described as above.

For a further assay, the target named is T5, INF-γ (Homo sapiens (Human), UniProt P01579 24-161).
T5 sequence: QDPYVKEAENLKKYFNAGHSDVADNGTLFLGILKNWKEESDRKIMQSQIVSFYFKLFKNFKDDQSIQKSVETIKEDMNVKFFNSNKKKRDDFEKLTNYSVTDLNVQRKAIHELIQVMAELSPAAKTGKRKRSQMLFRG
The assay is described as above.

For the next assay, the target named is T6, human IL19 (human, UniProt Q9UHD0 25-177).
T6 sequence (looked up): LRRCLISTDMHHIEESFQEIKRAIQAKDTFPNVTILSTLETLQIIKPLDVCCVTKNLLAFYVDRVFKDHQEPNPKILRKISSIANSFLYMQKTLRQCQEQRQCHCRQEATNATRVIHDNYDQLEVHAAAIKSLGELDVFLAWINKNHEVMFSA
The description is as above.

The target in assay [2] is T7, human IL-22 (human, UniProt Q9GZX6 34-179).
T7 sequence (looked up): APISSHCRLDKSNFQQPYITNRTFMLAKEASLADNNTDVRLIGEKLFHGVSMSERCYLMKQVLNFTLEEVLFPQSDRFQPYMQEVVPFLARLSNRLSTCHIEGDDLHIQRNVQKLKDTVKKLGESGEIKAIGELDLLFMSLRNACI
The experiment in a line: cell-based or functional assay.

Assay [3] concerns the target T7, human IL-22. The experiment in a line: affinity ELISA on hIL22, mAb concentration at 50% max signal.
Assay [4] has as its target T3, mouse IL-22. In words: affinity ELISA on mIL22, mAb concentration at 50% max signal (second row of the same name).
Assay [5] concerns the target T3, mouse IL-22. The experiment in a line: SPR (SierraSensors SPR-2), mIL-22 immobilized on chip, antibody injected, heterogeneous ligand model.
Protocol: (§2) The affinity of the 10 antibodies of Table 1 was measured by Surface Plasma Resonance (SPR) using a capture assay on a SPR-2 instrument (SierraSensiors, Hamburg, Germany). The antigens hIL-22 and mIL-22 were immobilized on chips. The running buffer for the assay contained 10 mM HEPES with a pH of 7.4, 500 mM NaCl, and 0.05% TWEEN® 20. […] The off-rate was measured for 6 minutes. Binding constants were calculated using the curve fitting software Analyzer2 (Sierra Sensors). Sensorgrams were analyzed with the instrument specific software and with BIAevaluation 4.1 software. The binding data were analyzed using the Langmuir 1:1 model (human IL-22) or a model for a heterogeneous ligand (mouse IL-220).
For assay [6], the target named is T7, human IL-22. In words: affinity ELISA on hIL22, mAb concentration at 50% max signal (second row of the same name).
Assay [7] concerns the target T7, human IL-22. The experiment in a line: SPR (SierraSensors SPR-2), hIL-22 immobilized on chip, antibody injected, Langmuir 1:1 model.
Protocol: as §2
For assay [8], the target named is T3, mouse IL-22. In words: cell-based or functional assay.
In assay [9] the target is IL-22 (CXCL1 assay in HT29 cells). The experiment in a line: cell-based or functional assay.
For assay [10] the target is unchanged. In words: cell-based or functional assay. The source holds these as a separate data set.
The target in assay [11] is T3, mouse IL-22. In words: affinity ELISA on mIL22, mAb concentration at 50% max signal.

Protocol for INF-γ: as §1
Protocol for INF-λ1: as §1
Protocol for human IL19: as §1
Protocol for human IL20: as §1
Protocol for human IL24: as §1
Protocol for human IL26: as §1

B1: hum10 (antibody, V domains shown)
VH: QVQLVQSGAEVKKPGASVKVSCKASGYIFTSYWIHWIRQPPGKGLEWIGRIYPGTGNTYYNEKFKGRVTISADKSISTAYLQWSSLKASDTAMYYCARSYDSSCAYWGQGTLVTVSS
VL: AIQLTQSPSSLSASVGDRVTITCSASSSVSYMHWYLQKPGQSPQLLIYETSKLASGVPSRFSGSGSGTDFTFTISSLEAEDAATYYCQQWSSNPYITFGQGTKVEIKR
notes: Humanized monoclonal antibody derived from murine 3C3; also called parent antibody hum10; humanized 3C3
In general, EC50 refers to the midpoint of the concentration-response curve. On to B1, for which the binding result in the assay with human IL20, with human IL24, with mouse IL-22 [1], in the assay with INF-λ1, in the assay with human IL26 and with INF-γ was “no binding (tested: 100 ng/ml)” in each case. For the same molecule, in the assay with human IL19, the binding result is “no binding (tested: 100 ng/ml)”. For the same molecule, in the assay with human IL-22 [2], the “STAT3 Phosphorylation; hIL22 % inhibition mAb [0.73 nM]” value came out at 7%. The molecule further returned a 50% effective concentration (EC50) with human IL-22 [3] of 2.22 nM.

B2: CPS-02 (antibody, V domains shown)
VH: QVQLVQSGAEVKKPGASVKVSCKASGYIFRSYWIHWIRQPPGKGLEWIGRIYPGTGRTYYNEKFKGRVTISADKSISTAYLQWSSLKASDTAMYYCARSYDSSVAYWGQGTLVTVSS
VL: AIQLTQSPSSLSASVGDRVTITCSASSSVSYMHWYLQKPGQSPQLLIYKTRKLASGVPSRFSGSGSGTDFTFTISSLEAEDAATYYCQQWSSNPYITFGQGTKVEIKR
notes: Mutant of humanized hum10, whole antibody expressed in CHO cells; also called CPS-hit-02; CSP02
Usually Kd stands for the constant that tells how readily two partners part at equilibrium. By koff is commonly meant the rate constant with which the complex falls apart. The low end stands for a long-lived complex, the high end for a short-lived complex. Turning to B2, the half-maximal effective concentration (EC50) turned out to be 0.019 nM with mouse IL-22 [4], 0.054 nM with human IL-22 [6], 0.027 nM with human IL-22 [3] and 0.042 nM in the assay with mouse IL-22 [11]. The Kd in the assay with mouse IL-22 [5] amounted to 3.28 nM; with human IL-22 [7], 0.025 nM. For the same molecule, the off-rate (koff) in the assay with mouse IL-22 [5] worked out at 0.000545 s⁻¹; in the assay with human IL-22 [7], 4.67e-05 s⁻¹. Also, the binding result with human IL20, in the assay with human IL24, in the assay with INF-λ1, in the assay with human IL26, with INF-γ and with human IL19 was “no binding (tested: 100 ng/ml)” each time. The “Acute Phase response 5 µg mIL22 and 5 µg mAb (% signal reduction), molar ratio mIL22: mAb = 4.5:1 (serum amyloid in mice)” value with mouse IL-22 [8] is 81%. Further, the “CXCL-1 Assay (IC50 [pM]) double data points 02122015” value in assay [9] was determined as 131 pM. For the same molecule, the “CXCL-1 Assay (IC50 [pM]) single data points 02052015” value in assay [9] is 197 pM. Besides, the “STAT3 Phosphorylation; hIL22 % inhibition mAb [0.73 nM]” value with human IL-22 [2] worked out at 33.8%. For the same molecule, in [10], the “IC50 (parameter C of the log-logit fit y=(A-D)/(1+(x/C)^B)+D) of inhibition of IL-22-induced CXCL1 production in HT29 cells” value amounted to 29.5 ng/ml.
